Results taken from the nanobody polyreactivity screen of Harvey et al. (2022).

experiment: yeast display, Sf9 membrane polyspecificity reagent, FACS + sequencing; frameworks hold sequencing errors
Procedure, shortened: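 Nanobodies from a synthetic yeast display library (Saccharomyces cerevisiae BJ5465), induced 36–48 hours with galactose, were stained 1 hour at 4 °C with 10% biotinylated, detergent-solubilized Sf9 membrane reagent, enriched on streptavidin microbeads, then FACS-sorted. Anti-HA (expression) and streptavidin (reagent binding) fluorescence set low and high (top ~1%) gates. Polyreactivity labels come from the gate of origin. Genes were colony-PCR amplified, MiSeq 2 × 250 sequenced and filtered by CDR length.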

Sequence	polyreactivity (PSR sort gate)
QVQLVESGGGLVQAGGSLRLSCAASGYIFDRYAMGWYRQAPGKERELVAAISGRGGSTYYADSVKGRFTISRDNAKNTVYLQKNSLKPEDTAFYYCARDVYVRNGQRARYDSWGQGTQVTVSS	high polyreactivity
QVQLVESGGGLVQAGGSLRLSCAASGYIFDVYAMGWYRQAPGKERELVAAISSSGGRTYYADSVKGRFTISRDTAKNTVYLQMNSLKPEDTAVYYCAAKTHSRTKVYTADYWGQGTQVTVSS	high polyreactivity
QVQLVESGGGLVQAGGSLRLSCAASGYIFERTAMGWYRQAHGKERELVAAITDDGDDTYYADSVKGRFTISRDNAKNTVYLQMNSLKPEDTAVFYCAKDLYYGDYYYWGQGTQVTVSS	low polyreactivity
QVQLVESGGGLVQAGGSLRLSCAASGYIFFGNAMGWYRQAPGKERDLVAAIRWRGTSTYYADSVKGRFTISRDNAKNTVTFLMNSLKPEDSAVYYCAADVVRSNFYGTFLYDYEYWGKGTQVTVSS	low polyreactivity
QVQLVESGGGLVQAGGSLRLSCAASGYIFGHYAMGWSRQAPGKERELVAGITWRGGSTYYADSVKGRFTISRDNAKNTVYLQLNSLKPEDTAVYYCNAQYTQRWPYGLYYEMDYWGQGTQVSVSS	low polyreactivity
QVQLVESGGGLVQAGGSLRLSCAASGYIFGHYTMGWYRPAPRKERELVAGITSGTRTYYADSVKGRFTISRDNAKNTVYLQMNSRKPDDTAVYYCAKRGPVRTQYTYYYWGQGTQVTVSS	high polyreactivity
QVQLVESGGGLVQAGGSLRLSCAASGYIFGIYAMGWYRQAPGKERELVAAISTSGGSKYYADSVKGRFTISRDTAKNTVYLQMNSLKPEDTAVYYCAASRPSPRPRYGYWGQGTQVTVSS	high polyreactivity
QVQLVESGGGLVQAGGSLRLSCAASGYIFGIYAMGWYRQAPGKERELVARINWSGGRTYYADSVKGRFTISRDNAKNTVYLQMNSLKTEDTAVYYCAARSSYRKMDYWGQGTQVTVSS	high polyreactivity
QVQLVESGGGLVQAGGSLRLSCAASGYIFGNYAMGWYRQAPGKERELVAAISKSGVTTYYADSVKGRFTISRDNAKNTVYLQMNSLKPEDTAVYYCIARSWRPINARYNEYDYWGQGTQVTVSS	low polyreactivity
QVQLVESGGGLVQAGGSLRLSCAASGYIFGPNAMGWYRQAPGKERELVAAISSRGDSTFYADSVKGRFTISRDNAKNTDYLQMNSLKPEDTAVYYCAAEEITQFYVGSYLDDYWGQGTQVTVSS	low polyreactivity
QVQLVESGGGLVQAGGSLRLSCAASGYIFGQYAMGWYRQAPGKERELVAAIRRSGGRTYYADSVKGRFTISRDNAKNTVYLQMNSLKPEDTAVYYCNKGPPQTSWRTTLFDYWGQGTQVTVSS	high polyreactivity
QVQLVESGGGLVQAGGSLRLSCAASGYIFGSYVMGWYRQAPGKERELVAAISRRGGSTYYADSVKGRFTISRDNAKNTVNLQMNSLKPEYTAVYYFSADYGQYAKYDYWGQGTQVTVSS	high polyreactivity
QVQLVESGGGLVQAGGSLRLSCAASGYIFGVYAMGWYRQAPGKERELVAAISYGVGSTYYADSVKGRFTISRDNAKNTVYLQMNSLKPEDNAVYYCAAEDTQVRWSPVRPLEDYWGQGTQVTVSS	low polyreactivity
QVQLVESGGGLVQAGGSLRLSCAASGYIFGWYTMGWYRQAPGKERELVAAISGGGRTYYADSVKGRFTISRDNAKNTVYLQMNSLKPEDTAVYYCAARVAQVAYPDGYWGQGTQVTVSS	high polyreactivity
QVQLVESGGGLVQAGGSLRLSCAASGYIFGYNAMGWYRQAPGKERELVATINSSDSTNYADSVKGRFTISRDNAKNTVYLQMNSLKPEDTAVYYCNKDHVRRSYPYDYWGQGTQVTVSS	low polyreactivity
QVQLVESGGGLVQAGGSLRLSCAASGYIFGYYAMGWYRQAPGKERELVAAIRSGGNTYYADSVKGRFTISRDNAKNTVYLQMNSLKPEDTAVYYCAKRYGRFSDYWGQGTQVTVSS	high polyreactivity
QVQLVESGGGLVQAGGSLRLSCAASGYIFGYYVMGWYRQARGKERELVAAISDSDITYYADSVKGRFTISRDNAKNTVSLQMNSLKPEDTAVYYCNADFGYWWDGRRYDYWGQGTQVTVSS	low polyreactivity
QVQLVESGGGLVQAGGSLRLSCAASGYIFHYNAMGWYRQAPGKEREFVAAISQGGGSTYYADSVKGRFTISRDNAKNTVYLQMNSLKPEDTAVYYCAADYRSGYREMDYWGQGTQVTVSS	low polyreactivity
QVQLVESGGGLVQAGGSLRLSCAASGYIFIGYAMGWYRQAPGKERELVATITSGGSTNYADSVKGRFTISRDNAKNTVYLQLHSLNPEDTAVDYCAAGRGRYFYSWRYLYAIFDYWGQGTQVTVSS	low polyreactivity
QVQLVESGGGLVQAGGSLRLSCAASGYIFINNAMGWYRQAPGKERELVAAISFNSGSTYYADSVKGRFTISRDNAKNTVYLQMNSLKPEDTAVYYCAADYEGWGYDYRGDYWGQGTQVTVSS	low polyreactivity
QVQLVESGGGLVQAGGSLRLSCAASGYIFIVNAMGWYRQAPGKERELVAAINSSGGNTYYADSVKGRFTISRDNAKNTVYLLMNSLKPEDTAVYYCAADQAKDISVEYDYWGQGTQVTVSS	low polyreactivity
QVQLVESGGGLVQAGGSLRLSCAASGYIFKYNTMGWYRQAPGKERELVASITWSGVRTYYADSVKGRFTISRDNAKNTVYLQMNSLKPEDTAVYYCNAAYRRSWDSDDYWGQGTQVTVSS	low polyreactivity

Sequence	polyreactivity (PSR sort gate)
QVQLVESGGGLVQAGGSLRLSCAASGYIFKYYAMGWYRQAPGKERELVATINYSGGGTYYADSVKGRFTISRDNAKNTVYLQMNSLKPEDTAVYYCAAEHFFWGYDYWGQGTQVTVSS	high polyreactivity
QVQLVESGGGLVQAGGSLRLSCAASGYIFLAYAMGWYRQAPGKERELVADNTYADSVKGRFTISRDNAKNTVYLQMNSLKPEDPAVYYCNADEVYDEYSYDYWGQGTQVTVSS	low polyreactivity
QVQLVESGGGLVQAGGSLRLSCAASGYIFLRNAMGWYRQAPGKERELVAAIRRTGGSTYYADSVKGRFTISRDNAKHTVYLQMNSLKPEDTAVYYCAKRSYTGYESWGQGTQVTVSS	low polyreactivity
QVQLVESGGGLVQAGGSLRLSCAASGYIFLVYAMGWYRQAPGKERELVAAIDWSDTHTYYADSVKGRFTISRDNAKNTVYLHMNSLKPEDSAVYYCNADDYQYKTWYHLDYWGQGTQVTVSS	low polyreactivity
QVQLVESGGGLVQAGGSLRLSCAASGYIFLYNAMGWYRQAPGKERELVAAIRAIGGRTYYADSVKGRFTISRDNAKNTVYLQMNSLKPEDTAVYYCNARGQRRRSTGLRYIYDYWGQGTQVTVSS	high polyreactivity
QVQLVESGGGLVQAGGSLRLSCAASGYIFLYYTMGWYRQAPGKERELVAAITIGGGTYYADSVKGRFTISRDNAKNTVYLQMNSLKPEDTAVYYCNADYASYYRYSRPLEMNYWGQGTQVTVSS	low polyreactivity
QVQLVESGGGLVQAGGSLRLSCAASGYIFNVYAMGWYRQAPGKESELVAAISTSGGSTYYADSVKGRFSISRDNAKNTVYLQMNSLKPEDTAVYYCAAKSTLSRSHKSDYWGQGTQVTVSS	high polyreactivity
QVQLVESGGGLVQAGGSLRLSCAASGYIFNYYAMGWYRQAPGKERELVAAITSGDSTYADSVKGRFTISRDNAKNTVYLQMNSLKPEDTAVYYCAAEISILPFVTPDTIYGYWGQGTQVTVSS	low polyreactivity
QVQLVESGGGLVQAGGSLRLSCAASGYIFNYYGMGWYRQAPGKDRELVATISRGASTNYADSVKGRFTISRDNARNTVYFQMNTLKPEDTAVYYCAYWGQRTQVTVSS	low polyreactivity
QVQLVESGGGLVQAGGSLRLSCAASGYIFPFYAMGWYRQAPGKQRELVAAITESGGSTYYADSVKGRFTISRDNAKNNVYLQMNSLKPEDTAVYYCAKEVVKHPRGKLDYWGQGTQVTLSS	low polyreactivity
QVQLVESGGGLVQAGGSLRLSCAASGYIFPRYAMGWYRQAPGKERELVAAISYSGGSTYYADSVKGRFTISRDYAKNTVYLQMNSLKPEDTAVYYCNAYFLSQYQSAYRDDYWGQGTQVTVSS	high polyreactivity
QVQLVESGGGLVQAGGSLRLSCAASGYIFPYNAMGWYRQAPGKERELVATITWTGGSTYYADSVKGRFTISRDNAKNSVYLQMNSLKPEDTAVYYCAADLSIRYDHEYGYWGKGTQVTVSS	low polyreactivity
QVQLVESGGGLVQAGGSLRLSCAASGYIFPYNVMGWSRQAPGKERELVAAITWRVVRTYYADSVKGRFTISRDNAKNTVYLQMNSLKPEDTAVYYCAALSRQSGDYWGQGTQVTVSS	high polyreactivity
QVQLVESGGGLVQAGGSLRLSCAASGYIFQRDAMGWYRTAPGKEREFVAAIRYSGGSTYYADSVKGRFTISRDNAKNTVYLQMNCLKPEDTAVYYCAADQRDPWRSAYGYYYWGQGTQVTVSS	high polyreactivity
QVQLVESGGGLVQAGGSLRLSCAASGYIFQVNAMGWYRQAPGKERELVASISCGGSTNYADSVKGRFTISRDNAKNTVYLQMNSLKPEDTAVYYCAAELGYPYLQYVYWSQYLYDYWGQGTQVTVSS	low polyreactivity
QVQLVESGGGLVQAGGSLRLSCAASGYIFRYNAMGWYRQAPGKEREFVASISQRGGSTYYADSVKGRFTISRDNAKNTVYLQMNSLKPEDTAVYYCAARLGYYSYEYNYWGQGTQVTVSS	high polyreactivity
QVQLVESGGGLVQAGGSLRLSCAASGYIFSGNAMGWYRQAPGKERELVAAITRSDVNTDYADSVKGRFTISRDNAKNTVYLQMNSLKPEDTAVYSCNTRVRASSVDYDEGDYWGQGTQVTVSS	low polyreactivity
QVQLVESGGGLVQAGGSLRLSCAASGYIFSLNAMGWYRQAPGKERELVAGIRKRGGSTYYADSVKGRFTISRDNAKNTVYLQMNSLKPEDTAVYYCAAQPALTYRFYYWGQGTQVTVSS	high polyreactivity
QVQLVESGGGLVQAGGSLRLSCAASGYIFTIYAMGWYRQAPAKEREFVAAITWSGGRTYYADSVKGRFTISRDTAKNTVYLQMNSLKPEDSAVDYGAARVANYLSQMYYWGQGTQVTVSS	high polyreactivity
QVQLVESGGGLVQAGGSLRLSCAASGYIFVFNTMGWYRQAPGKERELVASISWDAGTTYYADSVKGRFTISRDNAKNTVYLQMNSLKPEDTAVDYCNAGRIRSGYLDYWGQGTQVTVSS	low polyreactivity
QVQLVESGGGLVQAGGSLRLSCAASGYIFVRYAMGWYRQAPGKERELVAAINSSGGRTYYADSVKGRFTISRDNAKNTVYLQLNSLKPEDTAVYYCAAYGYYRSGYRALEGYWGQGTQVTVAS	high polyreactivity
